Results reported in patent US20250277790A1 (Johns Hopkins, published 2025).

Biological target: human EGFR tagged with the fluorescent protein mTurquoise at the C-terminus (wild-type), in plasma … (human, UniProt P00533 25-1210)
Assay: cell-based or functional assay

B1: EGF ligand from mouse labeled with rhodamine at its N-terminus (rho-mEGF, Thermofisher, E3481) (ligand, UniProt P01132 977-1029, looked up)
chain: NSYPGCPSSYDGYCLNGGVCMHIESLDSYTCNCVIGYSGDRCQTRDLRWWELR
modifications: not fully specified; rhodamine (tetramethylrhodamine) at the N-terminus
  EC50 of Y1068 phosphorylation per EGFR molecule: 5.5 nM
  EC50 of Y1173 phosphorylation per EGFR molecule: 6.8 nM
